Assay results from US20190127480A1 (Regeneron, published 2019).

Target: human CD3 expressed on cells (Jurkat cells; human T-cells of PBMC) (human, UniProt P09693 23-182; P20963 22-164)
Assay: cell-based or functional assay

Sequence of human CD3 expressed on cells (Jurkat cells; human T-cells of PBMC) (chain, as listed by the source, chain 1 of 4): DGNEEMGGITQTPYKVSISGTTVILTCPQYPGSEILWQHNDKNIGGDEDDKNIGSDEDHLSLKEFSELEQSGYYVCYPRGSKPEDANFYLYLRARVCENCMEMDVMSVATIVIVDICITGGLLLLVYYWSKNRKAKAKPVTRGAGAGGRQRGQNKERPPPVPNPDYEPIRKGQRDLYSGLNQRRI
Sequence of human CD3 expressed on cells (Jurkat cells; human T-cells of PBMC) (chain, as listed by the source, chain 2 of 4): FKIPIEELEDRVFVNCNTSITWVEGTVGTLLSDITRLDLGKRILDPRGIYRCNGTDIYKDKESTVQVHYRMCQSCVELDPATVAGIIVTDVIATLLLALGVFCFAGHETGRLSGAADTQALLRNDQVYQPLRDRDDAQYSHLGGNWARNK
Sequence of human CD3 expressed on cells (Jurkat cells; human T-cells of PBMC) (P09693 23-182, chain 3 of 4): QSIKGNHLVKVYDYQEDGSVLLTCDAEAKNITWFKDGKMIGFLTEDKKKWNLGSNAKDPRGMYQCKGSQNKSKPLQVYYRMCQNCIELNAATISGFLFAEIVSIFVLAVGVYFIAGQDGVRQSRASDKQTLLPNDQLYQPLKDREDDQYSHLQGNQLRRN
Sequence of human CD3 expressed on cells (Jurkat cells; human T-cells of PBMC) (P20963 22-164, chain 4 of 4): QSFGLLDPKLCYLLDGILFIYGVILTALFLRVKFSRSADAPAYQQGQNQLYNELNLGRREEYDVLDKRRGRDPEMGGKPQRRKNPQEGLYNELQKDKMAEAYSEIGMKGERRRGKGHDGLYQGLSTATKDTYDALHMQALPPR

B1: H2M3541N (antibody, mouse IgG2, V domains shown)
VH: EVQLVESGGGLVRPGRSLRLSCAASGFTFDDYTMHWVRQAPGKGLEWVSDISWNSGTIGYADSVKGRFTISRDNAKNSLYLQMNSLRPEDTALYYCAKDMSGYAHYYYYGMDVWGQGTTVTVSS
VL: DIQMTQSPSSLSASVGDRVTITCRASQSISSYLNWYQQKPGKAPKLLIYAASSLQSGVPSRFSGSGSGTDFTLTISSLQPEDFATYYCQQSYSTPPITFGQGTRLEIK
U937 Cytotoxicity Human T-cells: 53.9 pM

B2: H1M3549N (antibody, mouse IgG1, V domains shown)
VH: EVQLVESGGGLVQPGRSLRLSCVASGFPFADYTMHWVRQAPGKGLEWVSDISWNSGSIGYADSVKGRFTISRDNAKNSLYLQMNSLRTEDTALYYCAKDMSGYAHYFYYGMDVWGQGTTVTVSS
VL: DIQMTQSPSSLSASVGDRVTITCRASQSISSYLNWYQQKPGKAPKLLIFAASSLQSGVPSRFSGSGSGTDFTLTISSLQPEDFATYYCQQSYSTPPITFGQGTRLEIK
U937 Cytotoxicity Human T-cells: 107 pM

B3: H1M3613N (antibody, mouse IgG1, V domains shown)
VH: EVQLVESGGGLVQPGRSLKLSCTASGFTFADYTMHWVRQGPGKGLEWVSDISWNSGSKGYADSVKGRFTISRDNAKNSLYLQMNSLRTEDTALYYCAKDMSGYAHYYYYALDVWGQGTTVTVSS
VL: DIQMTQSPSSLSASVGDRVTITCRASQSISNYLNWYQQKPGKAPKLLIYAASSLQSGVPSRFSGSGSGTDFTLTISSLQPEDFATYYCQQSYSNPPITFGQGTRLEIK
U937 Cytotoxicity Human T-cells: 866 pM

B4: H1M3542N (antibody, mouse IgG1, V domains shown)
VH: EVQLVESGGGLVQPGRSLRLSCVASGFPFADYTMHWVRQAPGKGLEWVSDISWNSGSKGYADSVKGRFTISRDNAKNSLYLQMNSLRTEDTAFYYCAKDMSGYAHYFYYGMDVWGQGTTVTVSS
VL: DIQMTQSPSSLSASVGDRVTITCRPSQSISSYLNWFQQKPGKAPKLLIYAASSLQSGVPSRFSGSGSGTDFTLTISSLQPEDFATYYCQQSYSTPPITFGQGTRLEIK
U937 Cytotoxicity Human T-cells: 29.2 pM

B5: H2M3548N (antibody, mouse IgG2, V domains shown)
VH: EVQLVESGGGLVQPGRSLRLSCAASGFKFADYAMHWVRQAPGKGLEWVSEISWNSGSIGYVDSVKGRFTISRDNAKNSLYLQMNSLRAEDTALYYCVKDKSGYGHYYIGMDVWGQGTTVIVSS
VL: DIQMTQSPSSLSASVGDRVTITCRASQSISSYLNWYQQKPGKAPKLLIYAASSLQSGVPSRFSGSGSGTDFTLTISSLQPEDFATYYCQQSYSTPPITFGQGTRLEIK
U937 Cytotoxicity Human T-cells: 5.5 pM

B6: H2M3540N (antibody, mouse IgG2, V domains shown)
VH: QVHLEESGGGVVQPGRSLRLSCSASGFTFSSYAMHWVRQAPGKGLEWVAVIWYDGTNKYYLDSVKGRFTISRDNSKNTLFLQMNSLRAEDTAVYYCARDRGSIITHWGQGTLVTVSS
VL: DIQMTQSPSSLSASIGDRVTITCRASQNISSYLNWYQQKPGKAPKLLIYAASSLQSGVPSRFSGSGSGTDFTLTISSLQPEDFATYYCQQTYSTPPITFGQGTRLEIK
U937 Cytotoxicity Human T-cells: 12.5 pM

B7: H2M3543N (antibody, mouse IgG2, V domains shown)
VH: EVQLVESGGGLVQPGRSLRLSCAASGFTFDDYTMHWVRQAPGKGLEWVSDISWNSGSIGYADSVKGRFTVSRDNAKNSLYLQMNSLRGEDTALYYCAKDMSGYAHYGYYGMDVWGQGTTVTVSS
VL: DIQMTQSPSSLSASVGDRVTITCRASQSIRNYLNWYQQKPGKVPKLLIYAASSLQSGVPSRFSGSGSGTDFTLTISSLQPEDFATYYCQQSYSNPPITFGQGTRLEIK
U937 Cytotoxicity Human T-cells: 13.1 pM

B8: H1M3544N (antibody, mouse IgG1, V domains shown)
VH: EVQLVESGGGLVQPGRSLRLSCAASGFTFDDYTMHWVRQVPGKGLEWVSGISWNSGSLAYADSVKGRFTISRDNAKNSLYLQMNSLHPEDTALYYCVKDGSGYGHYSYYGLDVWGQGTTVTVSS
VL: not shown
U937 Cytotoxicity Human T-cells: 172 pM
